# Article PMC4104964
# Target: yeast Mediator (yMED), core, devoid of the CKM (yeast (endogenous in strain BJ2168)) (UniProt P38782)
# Experiment: single-particle EM
substance,measurement,value
recombinant GST-labeled CTD of RNAPII (from UniProt P04050 1-1733) (domain or fragment),fraction of single yMED images with GST-CTD density,10%
